Measured values as given in the DeepSol protein solubility set.

experiment: soluble on expression in E. coli; label from the status in PepcDB or PDB records

Sequence | soluble on expression in E. coli
MGSDKIHHHHHHMGQIRVSGLGKAYKQYPNRWSRLFEWLVPFSPPRHHLHWILREVEFTIEPGEAVGIVGVNGAGKSTLLKMIAGTTQPTCGEIRVAGRVAALLELGMGFHPDFTGRQNVFMAGQLLGMQVEEIQALMPDIEAFAEIGEAIEQPVRTYSSGMQMRLAFSVATARRPDILIVDEALSVGDAYFQHKSFERIRSFRKAGTTLLIVSHDRSAIQSICDSAILLEQGRMAMRGRPEEVMDYYNALLAEREGQTVRQEMLADGQVRTISGTGEAAILDVRMVDQRQRALEVVEVGQAVTLEVEVEVRQDIERLILGFMIKDRLGQPMYGINTHRLDKALTDLKAGERITYRFAFDMRLGKGHYSVALSLSRLDSHLDRNFEWRDYGLVFHVINNRQEDFVGCSWLGAETHISRSGEAALDPTSAESTP | not soluble
MGSDKIHHHHHHMKVHLIGHASLFVETLDCNILMDPLLWNPGISEGMQDICPKRQVLHDQIPEFDILVISHQHIDHFNIRSLANLPKHVDVLIPKDQFLETCLRKLGYRHIYPLKDFNEVRIGSTRLVATRSENRVPEYGMIFADSDGVFWNQVDSIVNAQTINEVKSRYPQINFLLAPWQPLLQIQYQYNECVIFPYASYSHLLKIIGLTAPKAIAPGANGFKQINGSSWLNQIVFPVTREQFCHDVQQAYPTIQDRIFSFDPGDVITLNNGEVSHSPQKSTFVKKLADDSDSLYFSPVNTDSKLIDDNPEGYDIEQMKSVIEEEICIHLTKFFNDKKDSLFMEYGYWKAIYQLEVIFPTHSEAWYFDFSEHSIQCRRGKNPLANVFTLIAASSFYGLLKGIKGWDYANFGGYYRCFNKVYQATLYGIIRPFDDSNQGIPDPLSLKFPYKEVYERVRFYEIEKWGQVNDEQTIDKNSQNPMVIIGNTLIKPQHKVQCI | not soluble
MGSDKIHHHHHHMTWSATWRLSLELRQLRYLVGVVDAGSVSRAAQSLHVAQPALSAQIARLEEELGARLLIRSVRGVVPTEAGTAVLRQARLILKQVDAIAELAHEADADPTGSVSLGLPWTVRSVVGLPLLHQVRERLPQVRLEIIEGPSPALAMQTAQGKLDLAVVFENTPDNSLVLKPLATESLLLVGQRGSLVGRHNLKLEELAGLPLLMLSRPNGVREDIERQCAKRGIRLKIVAEINAPSLLIDAVRGGLGYSVLPACGIEQACRDGLLDAITLEGGSMQRTAHLGTSKLFALSRAAEHTAALLQESVAHAIGDRRWQATSPNEAD | not soluble
MGSDKIHHHHHHMMKKTHYNILMVNLPFSGHTNPTLGLAQILVQLGHNVTYINAPDWQSKIERTGAHFVPYDHYPDSLSERQKKVKSWSAAYQTVLRMGKDYDCLIYEMLFFPGKALADRLNIPAYRLFSTFSLNEKILTEFGKTGGFYLTSIFRFTFLRHLLSRKLQRTFQLAYDDLAKEISLNTPELNFTYTVREFQIDADTFDENHYQYVGPSINRPVEPPFDFTPFKNPIIYISLGTLLNRSVSFFKKCIKAFENEPYSIIISLGNRIKKEQLGTMPANVHLYSFVPQLQILERASLFLTHGGMNSVNEAIYYGCPMLVIPVGNDQPRVAQQVADLHLGKCLKCHNLNPQEIKQAAHTILKDSSYKNTIWHFQKIAQTAGGNTLIAQTIIKDLQTKP | not soluble
MPGVKVKETESFELALKKFKKQCEKAGILSEVRKREHYEKPSIKRKKKAIAARKRAMKKQRKMMDLEHHHHHH | not soluble
PRAAGHSEEVLEREASFSLTTIDGEVISLNNVGGDVVILWFMAAWCPSCVYMADLLDRLTEKYREISVIAIDFWTAEALKALGLNKPGYPPPDTPEMFRKFIANYGDPSWIMVMDDGSLVEKFNVRSIDYIVIMDKSSNVLYAGTTPSLGELESVIKSVQGG | soluble
MSLDKPYHVKFYSYNFPLPKPVVTAHGHWQRRRGLIVELTDQRGNRGRGEIAPLPWFGTEDLASATDFCRSLKGRITPAQIEKIGDRLPCCGFAFGSAEWELESGSVIENSPNSLSYCQLLPTGEAALDYLASNPQLGASTFKWKIGVGDFAVERDLYGQLWRRLPEGCQIRLDANGGLSVDIAQQWLTLLDRQRENSGPKIQYLEQPLPPGEIDEMFRLQEDFATSIALDEAVCSLAQLAQLYDKGWSGLYILKAAIMGNPRVLNHWLKTHPIPAIFSSVFETAIARGQVLALAQKWNLPDHAVGFAPLREPITEATPDSVEGHHHHHH | soluble
MGSDKIHHHHHHMQNHVISLASAAERRAHITDTFGVRGIPFQFFDALMPSERLEQAMAELVPGLSAHPYLSGVEKACFMSHAVLWKQALDEGLPYIAVFEDDVLLGEGAEKFLAEDAWLQERFDPDSAFIVRLETMFMHVLTSPSGVADYCGRAFPLLESEHWGTAGYIISRKAMWFFLDRFAALPSEGLHPVDWMMFGNPDDRERMPVCQLNPALCAQELHYAKFHDQNSALGSLIEHDRCLNSKQQRRDSPANTFKHRLIRALTKISREREKRRQRREQLIGKIIVPFQ | not soluble
MSLEAIHRSTRIEFSKSSLAYNVQYTKQVSGAKTLWLAVKSNAYGHGLLQVSKIARECGVDGLAVSVLDEGIAIRQAGIDDFILILGPIDVKYAPIASKYHFLTTVSSLDWLKSADKILGKEKLSVNLAVDTGMNRIGVRSKKDLKDEIEFLQEHSDHFSYDGIFTHFASSDNPDDHYFQRQKNRWYELIDGLIMPRYVHVMNSGAAMYHSKELPGCNSIARVGTVVYGVEPSEGVLGPIDKLKPVFELKSALTFVKKIPAGEGISYGSKFVTSRDTWIGTLPIGYGDGWLAEYQDFQLLIDGQKCRQVGQIAMDQMMVALPHEYPIGTEVTLIGKSGKYENTLYDLHKHSGVPPWKITVAFSDRLKRMVVDEGHHHHHH | soluble
MRLTNYSDYALRILTYLGLKREELSTITEIADCYGISRNHVVKIVHHLGQLGYVDTLRGKNGGIRLAHAPEKINIGEVIRHTETSMDIVECFSNQNSCIIGCSCVLRTAISEALSAFMAVLDDYTLADLIAPRRQLSRKLHVMQISDSLSD | not soluble
MNLPAHTALFTPSWHAELELGYGRFYDCTRPTQRRHKGPLRVQKHLYAEGPEVCQHIIVHPPGGIAGGDRLDISVNVGAHAWAQLTSPGAAKWYRAASPAFQQLELHVQPGATLEWLPQETIVFSNAQAELTTRIELHGDARLCYWDVVALGRPASGERFEHGHFQSHLDIRRDGTLLWHERQRIIGADGLLDSPIGLDGKTVFATLLLTGDVDSDLLEVCRSLSMPSPVRGNLTQLPGLIVARCLADEALHARAWLIEIWKRLRPALLGREAVMPRIWNTLEHHHHHH | not soluble
MGHHHHHHSHKELQRRRRSLALPGLQGCAELRQKLSLNFHSLCEQQPIGRRLFRDFLATVPTFRKAATFLEDVQNWELAEEGPTKDSALQGLVATCASAPAPGNPQPFLSQAVATKCQAATTEEERVAAVTLAKAEAMAFLQEQPFKDFVTSAFYDKFLQWKLFEMQPVSDKYFTEFRVLGKGGFGEVCAVQVKNTGKMYACKKLDK | soluble
MATLTAKNLAKAYKGRRVVEDVSLTVNSGEIVGLLGPNGAGKTTTFYMVVGIVPRDAGNIIIDDDDISLLPLHARARRGIGYLPQEASIFRRLSVYDNLMAVLQIRDDLSAEQREDRANELMEEFHIEHLRDSMGQSLSGGERRRVEIARALAANPKFILLDEPFAGVDPISVIDIKRIIEHLRDSGLGVLITDHNVRETLAVCERAYIVSQGHLIAHGTPTEILQDEHVKRVYLGEDFRL | soluble
MSLKTLLFDVDDTLLDFKLAEKKALHALFEEENVPFTSEVESTYHRINQGLWRSFEEGKITKDVLLDTRFGLLFDAFNREVDSVKMGENYREYLSQGHDLLGNSQRILEKLAPHYDLYIVTNGVAKTQYRRLEDSKLMPYFKDIFVSEEVGYQKPMKEYFDFVFERIPNFSREKTMIIGDSLHSDIQGGQQAKIQTVWLNPTSAPATPTIQPNYTIQQLDELLPILGHEGHHHHHH | soluble
MNEALDDIDRILVRELAADGRATLSELATRAGLSVSAVQSRVRRLESRGVVQGYSARINPEAVGHLLSAFVAITPLDPSQPDDAPARLEHIEEVESCYSVAGEESYVLLVRVASARALEDLLQRIRTTANVRTRSTIILNTFYSDRQHIP | soluble
MGSDKIHHHHHHMKIGITCYPSMGGSGIIATELGIKMAERGHEVHFITSNIPFRIRKPLPNMTFHQVEVNQYAVFQYPPYDITLSTKISDVIQEYDLDILHMHYAVPHAVCGILAKQMSGKNVKIMTTLHGTDITVLGYDHTLQNAIKFGIEQSDIVTSVSHSLAQQTYEIINTKKEIIPIYNFVRENEFPTRHNEELKDCYGISPEEKVLIHVSNFRKVKRIDTVIETFAKVHESIPSKLILLGDGPELIDMRHKARELDVETHVLFLGKQNDVSAFYQLSDLVLLLSEKESFGLTLLEAMKTGVLPIGSHAGGIKEVIRHEETGFIVDIGDSTQAAKYAIKLLSNPELYQKMQSQMLKDIEARFSSDLITDQYENYYRKMLEQGENNNES | not soluble
SLDEAEMKAVNIHDGIDGTLMILHHRLKAAIRRPKIEIVKDYAKLPLIECYPGKLNQVFMNILANAIDALEEGMGNEEIPPPTGQITIRTEVLDNQWVVIRIADNGPGMKEEVIRRIYDPFFTTKDVGKGTGLGMAISYQIVVDKHGGMLKCRSQPGEGTEFWIQIPVNCALADAAEEG | soluble
MGSDKIHHHHHHMALPVLICDDSAMARKQMARTLPKDWDVDITFATNGAEGLEAIRAGKGEVVFLDLNMPVMDGYEVLQTIQQQDLPALVIVVSGDIQIKAHERVKALGALDFIQKPVSAEAIAGILQEYGILVPGEGEGDEAEDNPLLKVDMRDACQEIANVAMGRAADLLAKLLDVFVVLPIPNVNVLEVSELTMALKATETSAKVTALCQGFIGAGVAGEALLLFHDSSFQDMAKLMKLDGPGDEATEVEVLIDTGNVLIGAFLNGIAEQLDMHFSQAHPVVLGRHCTVNDLIHDNAEKWHRTLAMEINYRIEDHNIECDLLLLFTEDSLPTLNYKLGYMLDTD | not soluble
PCFALTGPEAGSDAGGIPDQGVVCYGMYDGEEVLGVRVSWNKRYITLAPVATVLGLAFKLQDPDGLLGDKKDVGITCALIPADHDGVEIGERHDPLGSAFMNGPTRGEDVFIPMDWLIGG | not soluble
MAHHHHHHMEAVFYAFASFGTAPTKEMDNAHFSKMLKEAKIIGKTFTSTDADLLFNKIKAKGARKITFTEFNTRALPDIATKLKMTPEQVAEILTKASPASNSTKAEAVKFHDDKNLYTGVYKAGGPTNVDRNAGSLSGVVDRRVDQVDVRGTTSSQK | soluble
MAVTGQVKWFNNEKGFGFIEVPGENDVFVHFSAIETDGFKSLEEGQKVSFEIEEGNRGPQAKNVIKL | not soluble
SVYTYFSAVAGQDGEVDAEELQRCLTQSGINGTYSPFSLETCRIMIAMLDRDHTGKMGFNAFKELWAALNAWKENFMTVDQDGSGTVEHHELRQAIGLMGYRLSPQTLTTIVKRYSKNGRIFFDDYVACCVKLRALTDFFRKRDHLQQGSANFIYDDFLQGTMAI | soluble
MAHHHHHHMNKTNEVDDWTEWLDDDDEKREDEFHIDSTKDEAIKKKILQNNLDDIADFLDIGDNKKKKVEETENKVKPKVTEKIITLESTPLNSIKDCETLGEILAGRIRKCKAKSVALERFISIIITASESKLEDKDLLTVSRKLQEMVSQREKKKRYAQINKKKPNEVKNSIKNYEDEVDMIYGDLSYDEDDYEEEVVDEYLENF | soluble
SLQKFKWSNIYCKEADCVRILLVADPQILGKTFDTHFYAGLANYDSDRYLAWYYEQAVEHVQPDVIIFLGDLMDEGTDSTEMHFEEYYTRFGAIFPTHPTARSIYIPGDNDIGGEGRQPLNPIAKRRFRQYFSERPAWVINDNLTIYNINRITLEMTLNDPRMVDSTGSDVSDRYLRIFVSHMPVLDVPSSFTYTAIHNLKPNVIFSAHLHVSQFARIHRSRLKTVQYKPLSQDKRTAYKVHSFDLSYHQDTQELLEIIVPTCSYRMSVPDIGYGYAAIDGTTLKYTVLWTTRRFYQLISYV | not soluble
